Measurements reported in PMC11633381, “Acarbose impairs gut Bacteroides growth by targeting intracellular glucosidases” (mBio, 2024).

Molecular target: BoGH13BSus (BoSusA), periplasmic GH13 neopullulanase of the Bacteroides ovatus Sus (Bacteroides ovatus)
Test: SEC; 0.5 mL of 10.6 mg/mL BoSusA or 8.2 mg/mL SusA on HiPrep 16/60 Sephacryl S-200 HR, 20 mM HEPES, 100 mM NaCl, pH 7.0, 0.5 mL/min; compared with BioRad gel filtration standards

stoichiometry N: 2
Substance: BoGH13BSus (BoSusA), periplasmic GH13 neopullulanase of the Bacteroides ovatus Sus (enzyme)
